The results in this text go back to PMC7645262.

The assay concerns the target Bpa78-βarr1 with a 2xStrep tag at the C-terminus (bovine) (UniProt P17870). Description: cross-linking; Bpa78-βarr1-2xStrep in HEK293T cells irradiated with UV (365 nm) as intact cells, then isolated with Strep-Tactin XT (1 M NaCl, 1 M urea in the supernatant); product analysed by SDS-PAGE/blot, SEC (Superdex 200 Increase, 4°C, Buffer W), MALDI-TOF-MS and nano-HPLC/nano-ESI-Orbitrap-MS/MS.

Broadly, the stoichiometry N is a count of units in the complex or per binding partner. “Bpa78-βarr1 with a 2xStrep tag at the C-terminus (from UniProt P17870 1-418) (natural protein)” showed a stoichiometry N of 2.
